Assay results as given in FireProtDB (doi:10.1021/bi047926u).
Several values for one entry are separate records, joined by “and”; a condition that tells them apart may be missing. Identical values can stand only once.

Settings: Bacillus subtilis (strain 168); pH 7.2; Thermal; CD; TES-KOH 21 mM; KCl 4 mM; reversible: No; whole UniProt chain shown

B1: Manganese-dependent inorganic pyrophosphatase wild type, P37487 (protein)
chain: MEKILIFGHQNPDTDTICSAIAYADLKNKLGFNAEPVRLGQVNGETQYALDYFKQESPRLVETAANEVNGVILVDHNERQQSIKDIEEVQVLEVIDHHRIANFETAEPLYYRAEPVGCTATILNKMYKENNVKIEKEIAGLMLSAIISDSLLFKSPTCTDQDVAAAKELAEIAGVDAEEYGLNMLKAGADLSKKTVEELISLDAKEFTLGSKKVEIAQVNTVDIEDVKKRQAELEAVISKVVAEKNLDLFLLVITDILENDSLALAIGNEAAKVEKAFNVTLENNTALLKGVVSRKKQVVPVLTDAMAE
  Tm: 50 °C and 46 °C
